Molecular target: T1, Peptide conjugate 9 (DYE^2-Gly-Asp-Glu-Val-Asp-Gly-Ile-Lys-DYE^1)
T1 chain: GDEVDGIK

B1: purified caspase-3 (BD PharMingen) (protein)
chain: SGISLDNSYKMDYPEMGLCIIINNKNFHKSTGMTSRSGTDVDAANLRETFRNLKYEVRNKNDLTREEIVELMRDVSKEDHSKRSSFVCVLLSHGEEGIIFGTNGPVDLKKITNFFRGDRCRSLTGKPKLFIIQACRGTELDCGIETDSGVDDDMACHKIPVEADFLYAYSTAPGYYSWRNSKDGSWFIQSLCAMLKQYADKLEFMHILTRVNRKVATEFESFSFDATFHAKKQIPCIVSMLTKELYFYH
  fluorescence excitation and emission spectra before and after adding purified caspase-3 (in vitro cleavage): When purified caspase-3 is added to 9, significant excitation fluorescence (FIG. 6) and significant emission fluorescence is detected (FIG. 7) from the donor dibenzorhodamine dye
  time course of donor dye fluorescence emission after mixing with caspase-3 (in vitro cleavage): Emission from the donor dye increased rapidly during the first 5 to 10 minutes and stabilized in about an hour, indicating rapid cleavage.

Reference: patent publication US6979530
